Results from doi:10.1101/2025.03.26.645438.

Molecular target: Human GLP1R protein (human) (UniProt P43220)
Sequence (P43220 24-463): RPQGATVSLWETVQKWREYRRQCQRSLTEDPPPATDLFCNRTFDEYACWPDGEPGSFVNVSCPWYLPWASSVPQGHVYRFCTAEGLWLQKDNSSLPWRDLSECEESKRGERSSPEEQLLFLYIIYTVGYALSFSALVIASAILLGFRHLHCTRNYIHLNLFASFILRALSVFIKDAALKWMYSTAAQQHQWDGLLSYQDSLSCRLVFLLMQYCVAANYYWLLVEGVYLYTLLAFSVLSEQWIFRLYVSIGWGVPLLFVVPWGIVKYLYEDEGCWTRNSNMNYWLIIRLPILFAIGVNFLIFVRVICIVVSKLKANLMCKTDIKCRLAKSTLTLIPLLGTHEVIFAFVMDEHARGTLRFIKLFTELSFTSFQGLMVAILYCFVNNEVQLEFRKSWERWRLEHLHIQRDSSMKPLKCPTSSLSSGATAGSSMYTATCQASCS

- cAMP accumulation (HTRF) in HEK293 cells stably expressing human GLP-1R, EC50: 0.019 nM
Substance: Semaglutide (peptide)
